This note sets out measurements from publication PMC11731779, “Transferrin Disassociates TCR from CD3 Signaling Apparatus to Promote Metastasis” (Research, 2025).

For assay [1], the target named is T1, transferrin (UniProt P02787 20-698).
T1 construct: transferrin (serotransferrin); One molecule for the transferrin immobilised for SPR, added to cells (co-IP with intervention, FRET) and co-precipitated from human PBMC / T cells; Methods are in the supplement; also called Tf
Nature of the assay: not stated; DK8 binding to transferrin, 'binding response value' and KD (Fig. S9C and E); method not given.

The target in assay [2] is T1, transferrin. Nature of the assay: SPR; Biacore T200; transferrin amine-coupled to a CM5 chip at ~6,000 resonance units; analytes in PBST (0.02% Tween 20) at 20 μl/min; TCRα, TCRβ and human serum albumin at 1,000 nM; TCRα and TRAC at 125, 250, 500 and 1,000 nM; kinetic and steady-state fits. Conditions: both partners purified. Background: In SPR one partner is held on a chip, and binding of the other changes the refractive index at the surface.

T1 sequence (P02787 20-698): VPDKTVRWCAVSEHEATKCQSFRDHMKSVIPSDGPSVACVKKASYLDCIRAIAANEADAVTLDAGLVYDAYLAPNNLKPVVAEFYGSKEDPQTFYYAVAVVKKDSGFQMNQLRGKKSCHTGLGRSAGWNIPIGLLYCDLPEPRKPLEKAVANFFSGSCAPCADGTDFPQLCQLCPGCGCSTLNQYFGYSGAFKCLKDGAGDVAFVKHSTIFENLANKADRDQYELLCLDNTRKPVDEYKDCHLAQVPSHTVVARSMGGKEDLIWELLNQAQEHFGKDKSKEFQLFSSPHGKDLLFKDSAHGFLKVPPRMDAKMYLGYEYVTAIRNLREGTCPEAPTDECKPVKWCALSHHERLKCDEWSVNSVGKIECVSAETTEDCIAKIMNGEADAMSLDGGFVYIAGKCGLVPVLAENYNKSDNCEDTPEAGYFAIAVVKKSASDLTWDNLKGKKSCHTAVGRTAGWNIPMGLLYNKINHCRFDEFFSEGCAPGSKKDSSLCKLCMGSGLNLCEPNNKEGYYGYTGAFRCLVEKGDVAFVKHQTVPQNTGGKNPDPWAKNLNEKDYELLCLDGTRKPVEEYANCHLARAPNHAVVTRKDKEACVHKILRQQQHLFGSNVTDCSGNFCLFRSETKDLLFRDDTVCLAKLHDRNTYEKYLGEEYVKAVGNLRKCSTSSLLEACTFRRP

B1: DK8 (peptide)
peptide: DMRSMDFK
notes: amino acids 50 to 57 of TRAC (UniProt P01848); also called interfering peptide DK8; designed peptide (DK8)
In general, Kd refers to the constant that tells how readily two partners part at equilibrium. A lower Kd goes with higher affinity. On to B1, for which binding with transferrin [1] was put at a Kd of 166 nM.

B2: T cell receptor α constant (TRAC) (domain or fragment, human, UniProt P01848 1-115, looked up)
chain: IQNPDPAVYQLRDSKSSDKSVCLFTDFDSQTNVSQSKDSDVYITDKTVLDMRSMDFKSNSAVAWSNKSDFACANAFNNSIIPEDTFFPSPESSCDVKLVEKSFETDTNLNFQNLS
notes: T cell receptor alpha chain constant region (TRAC), human, UniProt P01848; TRAC protein used as analyte in SPR; construct and host may stand in the Supplementary Methods; also called constant domain (CD) of TCRα; Cα
In the assay with transferrin [2], B2 had an equilibrium dissociation constant (Kd) of 10.9 nM.
